The labels stand for the following.
B1: huAb1v6 (antibody, V domains shown)
VH: EVQLVESGGGLVKPGGSLRLSCAASGFTFSDYGMNWVRQAPGKGLEWIAYISSGRSNIYYADTVKGRFTISRDNAKNSLYLQMNSLRAEDTAVYYCARSWGYFDVWGQGTTVTVSS
VL: DIVMTQSPDSLAVSLGERATINCKSSQSLLNLGNQKNYLTWFQQKPGQPPKLLIYWASTRESGVPDRFSGSGSGTDFTLTISSLQAEDVAVYYCQNDYTYPLTFGQGTKLEIK
B2: huAb1v2 (antibody, V domains shown)
VH: EVQLVESGGGLVKPGGSLRLSCAASGFTFSDYGMNWVRQAPGKGLEWVSYISSGRSNIYYADTVKGRFTISRDNAKNSLYLQMNSLRAEDTAVYYCARSWGYFDVWGQGTTVTVSS
VL: DIVMTQSPDSLAVSLGERATINCKSSQSLLNTGNQKNYLTWFQQKPGQPPKLLIYWASTRESGVPDRFSGSGSGTDFTLTISSLQAEDVAVYYCQNDYTYPLTFGQGTKLEIK
B3: huAb1v1 (antibody, V domains shown)
VH: EVQLVESGGGLVKPGGSLRLSCAASGFTFSDYGMNWVRQAPGKGLEWIAYISSGRSNIYYADTVKGRFTISRDNAKNSLYLQMNSLRAEDTAVYYCARSWGYFDVWGQGTTVTVSS
VL: DIVMTQSPDSLAVSLGERATINCKSSQSLLNRGNQKNYLTWFQQKPGQPPKLLIYWASTRESGVPDRFSGSGSGTDFTLTISSLQAEDVAVYYCQNDYTYPLTFGQGTKLEIK
B4: huAb1v3 (antibody, V domains shown)
VH: EVQLVESGGGLVKPGGSLRLSCAASGFTFSDYGMNWVRQAPGKGLEWVSYISSGRSNIYYADTVKGRFTISRDNAKNSLYLQMNSLRAEDTAVYYCARSWGYFDVWGQGTTVTVSS
VL: DIVMTQSPDSLAVSLGERATINCKSSQSLLNLGNQKNYLTWFQQKPGQPPKLLIYWASTRESGVPDRFSGSGSGTDFTLTISSLQAEDVAVYYCQNDYTYPLTFGQGTKLEIK
B5: huAb1v1CDR2v4 (antibody, V domains shown)
VH: EVQLVESGGGLVKPGGSLRLSCAASGFTFSDYGMNWVRQAPGKGLEWIAYISSGRRNIYYADTVKGRFTISRDNAKNSLYLQMNSLRAEDTAVYYCARSWGYFDVWGQGTTVTVSS
VL: DIVMTQSPDSLAVSLGERATINCKSSQSLLNRGNQKNYLTWFQQKPGQPPKLLIYWASTRESGVPDRFSGSGSGTDFTLTISSLQAEDVAVYYCQNDYTYPLTFGQGTKLEIK
B6: huAb1v1CDR2v9 (antibody, V domains shown)
VH: EVQLVESGGGLVKPGGSLRLSCAASGFTFSDYGMNWVRQAPGKGLEWIAYISSGRQNIYYADTVKGRFTISRDNAKNSLYLQMNSLRAEDTAVYYCARSWGYFDVWGQGTTVTVSS
VL: DIVMTQSPDSLAVSLGERATINCKSSQSLLNRGNQKNYLTWFQQKPGQPPKLLIYWASTRESGVPDRFSGSGSGTDFTLTISSLQAEDVAVYYCQNDYTYPLTFGQGTKLEIK
B7: huAb1v1CDR2v2 (antibody, V domains shown)
VH: EVQLVESGGGLVKPGGSLRLSCAASGFTFSDYGMNWVRQAPGKGLEWIAYISSGRDNIYYADTVKGRFTISRDNAKNSLYLQMNSLRAEDTAVYYCARSWGYFDVWGQGTTVTVSS
VL: DIVMTQSPDSLAVSLGERATINCKSSQSLLNRGNQKNYLTWFQQKPGQPPKLLIYWASTRESGVPDRFSGSGSGTDFTLTISSLQAEDVAVYYCQNDYTYPLTFGQGTKLEIK
B8: huAb1v1CDR2v8 (antibody, V domains shown)
VH: EVQLVESGGGLVKPGGSLRLSCAASGFTFSDYGMNWVRQAPGKGLEWIAYISSGRINIYYADTVKGRFTISRDNAKNSLYLQMNSLRAEDTAVYYCARSWGYFDVWGQGTTVTVSS
VL: DIVMTQSPDSLAVSLGERATINCKSSQSLLNRGNQKNYLTWFQQKPGQPPKLLIYWASTRESGVPDRFSGSGSGTDFTLTISSLQAEDVAVYYCQNDYTYPLTFGQGTKLEIK
B9: huAb1v1CDR2v12 (antibody, V domains shown)
VH: EVQLVESGGGLVKPGGSLRLSCAASGFTFSDYGMNWVRQAPGKGLEWIAYISSGRKNIYYADTVKGRFTISRDNAKNSLYLQMNSLRAEDTAVYYCARSWGYFDVWGQGTTVTVSS
VL: DIVMTQSPDSLAVSLGERATINCKSSQSLLNRGNQKNYLTWFQQKPGQPPKLLIYWASTRESGVPDRFSGSGSGTDFTLTISSLQAEDVAVYYCQNDYTYPLTFGQGTKLEIK
B10: huAb1v1CDR2v15 (antibody, V domains shown)
VH: EVQLVESGGGLVKPGGSLRLSCAASGFTFSDYGMNWVRQAPGKGLEWIAYISSGRYNIYYADTVKGRFTISRDNAKNSLYLQMNSLRAEDTAVYYCARSWGYFDVWGQGTTVTVSS
VL: DIVMTQSPDSLAVSLGERATINCKSSQSLLNRGNQKNYLTWFQQKPGQPPKLLIYWASTRESGVPDRFSGSGSGTDFTLTISSLQAEDVAVYYCQNDYTYPLTFGQGTKLEIK
B11: huAb1v1CDR2v3 (antibody, V domains shown)
VH: EVQLVESGGGLVKPGGSLRLSCAASGFTFSDYGMNWVRQAPGKGLEWIAYISSGRENIYYADTVKGRFTISRDNAKNSLYLQMNSLRAEDTAVYYCARSWGYFDVWGQGTTVTVSS
VL: DIVMTQSPDSLAVSLGERATINCKSSQSLLNRGNQKNYLTWFQQKPGQPPKLLIYWASTRESGVPDRFSGSGSGTDFTLTISSLQAEDVAVYYCQNDYTYPLTFGQGTKLEIK
B12: huAb1v1CDR2v5 (antibody, V domains shown)
VH: EVQLVESGGGLVKPGGSLRLSCAASGFTFSDYGMNWVRQAPGKGLEWIAYISSGRVNIYYADTVKGRFTISRDNAKNSLYLQMNSLRAEDTAVYYCARSWGYFDVWGQGTTVTVSS
VL: DIVMTQSPDSLAVSLGERATINCKSSQSLLNRGNQKNYLTWFQQKPGQPPKLLIYWASTRESGVPDRFSGSGSGTDFTLTISSLQAEDVAVYYCQNDYTYPLTFGQGTKLEIK
B13: huAb1v1CDR2v17 (antibody, V domains shown)
VH: EVQLVESGGGLVKPGGSLRLSCAASGFTFSDYGMNWVRQAPGKGLEWIAYISSGRPNIYYADTVKGRFTISRDNAKNSLYLQMNSLRAEDTAVYYCARSWGYFDVWGQGTTVTVSS
VL: DIVMTQSPDSLAVSLGERATINCKSSQSLLNRGNQKNYLTWFQQKPGQPPKLLIYWASTRESGVPDRFSGSGSGTDFTLTISSLQAEDVAVYYCQNDYTYPLTFGQGTKLEIK
B14: huAb1v1CDR2v13 (antibody, V domains shown)
VH: EVQLVESGGGLVKPGGSLRLSCAASGFTFSDYGMNWVRQAPGKGLEWIAYISSGRHNIYYADTVKGRFTISRDNAKNSLYLQMNSLRAEDTAVYYCARSWGYFDVWGQGTTVTVSS
VL: DIVMTQSPDSLAVSLGERATINCKSSQSLLNRGNQKNYLTWFQQKPGQPPKLLIYWASTRESGVPDRFSGSGSGTDFTLTISSLQAEDVAVYYCQNDYTYPLTFGQGTKLEIK
B15: huAb1v1CDR2v16 (antibody, V domains shown)
VH: EVQLVESGGGLVKPGGSLRLSCAASGFTFSDYGMNWVRQAPGKGLEWIAYISSGRANIYYADTVKGRFTISRDNAKNSLYLQMNSLRAEDTAVYYCARSWGYFDVWGQGTTVTVSS
VL: DIVMTQSPDSLAVSLGERATINCKSSQSLLNRGNQKNYLTWFQQKPGQPPKLLIYWASTRESGVPDRFSGSGSGTDFTLTISSLQAEDVAVYYCQNDYTYPLTFGQGTKLEIK
B16: huAb1v1CDR2v14 (antibody, V domains shown)
VH: EVQLVESGGGLVKPGGSLRLSCAASGFTFSDYGMNWVRQAPGKGLEWIAYISSGRFNIYYADTVKGRFTISRDNAKNSLYLQMNSLRAEDTAVYYCARSWGYFDVWGQGTTVTVSS
VL: DIVMTQSPDSLAVSLGERATINCKSSQSLLNRGNQKNYLTWFQQKPGQPPKLLIYWASTRESGVPDRFSGSGSGTDFTLTISSLQAEDVAVYYCQNDYTYPLTFGQGTKLEIK
B17: huAb1v1CDR2v6 (antibody, V domains shown)
VH: EVQLVESGGGLVKPGGSLRLSCAASGFTFSDYGMNWVRQAPGKGLEWIAYISSGRLNIYYADTVKGRFTISRDNAKNSLYLQMNSLRAEDTAVYYCARSWGYFDVWGQGTTVTVSS
VL: DIVMTQSPDSLAVSLGERATINCKSSQSLLNRGNQKNYLTWFQQKPGQPPKLLIYWASTRESGVPDRFSGSGSGTDFTLTISSLQAEDVAVYYCQNDYTYPLTFGQGTKLEIK
B18: huAb1v1CDR2v10 (antibody, V domains shown)
VH: EVQLVESGGGLVKPGGSLRLSCAASGFTFSDYGMNWVRQAPGKGLEWIAYISSGRWNIYYADTVKGRFTISRDNAKNSLYLQMNSLRAEDTAVYYCARSWGYFDVWGQGTTVTVSS
VL: DIVMTQSPDSLAVSLGERATINCKSSQSLLNRGNQKNYLTWFQQKPGQPPKLLIYWASTRESGVPDRFSGSGSGTDFTLTISSLQAEDVAVYYCQNDYTYPLTFGQGTKLEIK
B19: huAb1v1CDR2v1 (antibody, V domains shown)
VH: EVQLVESGGGLVKPGGSLRLSCAASGFTFSDYGMNWVRQAPGKGLEWIAYISSGRTNIYYADTVKGRFTISRDNAKNSLYLQMNSLRAEDTAVYYCARSWGYFDVWGQGTTVTVSS
VL: DIVMTQSPDSLAVSLGERATINCKSSQSLLNRGNQKNYLTWFQQKPGQPPKLLIYWASTRESGVPDRFSGSGSGTDFTLTISSLQAEDVAVYYCQNDYTYPLTFGQGTKLEIK
B20: huAb1v1CDR2v11 (antibody, V domains shown)
VH: EVQLVESGGGLVKPGGSLRLSCAASGFTFSDYGMNWVRQAPGKGLEWIAYISSGRMNIYYADTVKGRFTISRDNAKNSLYLQMNSLRAEDTAVYYCARSWGYFDVWGQGTTVTVSS
VL: DIVMTQSPDSLAVSLGERATINCKSSQSLLNRGNQKNYLTWFQQKPGQPPKLLIYWASTRESGVPDRFSGSGSGTDFTLTISSLQAEDVAVYYCQNDYTYPLTFGQGTKLEIK

Some results are limits rather than exact numbers.

T1 sequence (P25942 21-277 limits assumed): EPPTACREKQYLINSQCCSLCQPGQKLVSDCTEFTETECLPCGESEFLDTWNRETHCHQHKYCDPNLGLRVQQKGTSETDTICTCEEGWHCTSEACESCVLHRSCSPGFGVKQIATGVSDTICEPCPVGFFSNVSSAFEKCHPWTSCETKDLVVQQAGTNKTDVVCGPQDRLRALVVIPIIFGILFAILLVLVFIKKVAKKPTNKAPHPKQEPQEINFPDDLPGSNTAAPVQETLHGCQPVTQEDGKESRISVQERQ

One assay concerns the target T1, Human CD40 (human, UniProt P25942 21-277). As to the kind of experiment: cell-based or functional assay.
B1: the “Antagonist: Jurkat/Reporter assay IC50” value was found to be 85 nM.

As to B2, the “Antagonist: Jurkat/Reporter assay IC50” value was > 100 nM.

As for B3, the “Antagonist: Jurkat/Reporter assay IC50” value turned out to be 55 nM.

Consider B4, for which the “Agonist: huCD40 reporter assay IC50” value was 79 nM.

The next assay addresses T1, Human CD40. Put plainly: cell-based or functional assay. The source holds these as a separate data set.
Consider B5, for which the “Antagonist: Jurkat/Reporter assay (IC50 nM)” value worked out at 563 nM.

With B6, the “Antagonist: Jurkat/Reporter assay (IC50 nM)” value was determined as 7.06 nM.

Regarding B7, the “Antagonist: Jurkat/Reporter assay (IC50 nM)” value was > 1000 nM.

Take B8: the “Antagonist: Jurkat/Reporter assay (IC50 nM)” value was > 1000 nM.

For B9, the “Antagonist: Jurkat/Reporter assay (IC50 nM)” value came to 236 nM.

With B10, the “Antagonist: Jurkat/Reporter assay (IC50 nM)” value is 340 nM.

Turning to B11, the “Antagonist: Jurkat/Reporter assay (IC50 nM)” value is 219 nM.

On to B12, for which the “Antagonist: Jurkat/Reporter assay (IC50 nM)” value was > 1000 nM.

As to B13, the “Antagonist: Jurkat/Reporter assay (IC50 nM)” value is 504 nM.

Consider B14, for which the “Antagonist: Jurkat/Reporter assay (IC50 nM)” value amounted to 62.4 nM.

B15: the “Antagonist: Jurkat/Reporter assay (IC50 nM)” value is 30.1 nM.

For B16, the “Antagonist: Jurkat/Reporter assay (IC50 nM)” value worked out at 21.9 nM.

In the case of B17, the “Antagonist: Jurkat/Reporter assay (IC50 nM)” value is > 1000 nM.

In the case of B18, the “Antagonist: Jurkat/Reporter assay (IC50 nM)” value was 23 nM.

Regarding B19, the “Antagonist: Jurkat/Reporter assay (IC50 nM)” value was > 1000 nM.

Regarding B20, the “Antagonist: Jurkat/Reporter assay (IC50 nM)” value was > 1000 nM.

The values above are taken from patent US20160347850A1 (AbbVie / Abbott, published 2016).
